Here are results for two proteins from ChEMBL document CHEMBL2074000, “Transport of ethinylestradiol glucuronide and ethinylestradiol sulfate by the multidrug resistance proteins MRP1, MRP2, and MRP3” (J Pharmacol Exp Ther, 2004).

Substrate in data set [1]: [H][C@@]12CC[C@@](O)(C#C)[C@@]1(C)CC[C@]1([H])c3ccc(O[C@@H]4O[C@H](C(=O)O)[C@@H](O)[C@H](O)[C@H]4O)cc3CC[C@@]21[H]
Kind of data set: TP_TRANSPORTER: uptake in membrane vesicles from MRP2-expressing Sf9 cells. The class given is functional, cell membranes, Membrane vesicle.

Substrate in data set [2]: C#C[C@]1(O)CC[C@H]2[C@@H]3CCc4cc(O[C@@H]5O[C@H](C(=O)O)[C@@H](O)[C@H](O)[C@H]5O)ccc4[C@H]3CC[C@@]21C
The experiment in a line: TP_TRANSPORTER: uptake in membrane vesicle from MRP3-expressing Sf9 cells. The class given is functional, cell membranes.

B1: ATP-binding cassette sub-family C member 2 (Homo sapiens) (protein)
chain: MLEKFCNSTFWNSSFLDSPEADLPLCFEQTVLVWIPLGYLWLLAPWQLLHVYKSRTKRSSTTKLYLAKQVFVGFLLILAAIELALVLTEDSGQATVPAVRYTNPSLYLGTWLLVLLIQYSRQWCVQKNSWFLSLFWILSILCGTFQFQTLIRTLLQGDNSNLAYSCLFFISYGFQILILIFSAFSENNESSNNPSSIASFLSSITYSWYDSIILKGYKRPLTLEDVWEVDEEMKTKTLVSKFETHMKRELQKARRALQRRQEKSSQQNSGARLPGLNKNQSQSQDALVLEDVEKKKKKSGTKKDVPKSWLMKALFKTFYMVLLKSFLLKLVNDIFTFVSPQLLKLLISFASDRDTYLWIGYLCAILLFTAALIQSFCLQCYFQLCFKLGVKVRTAIMASVYKKALTLSNLARKEYTVGETVNLMSVDAQKLMDVTNFMHMLWSSVLQIVLSIFFLWRELGPSVLAGVGVMVLVIPINAILSTKSKTIQVKNMKNKDKRLKIMNEILSGIKILKYFAWEPSFRDQVQNLRKKELKNLLAFSQLQCVVIFVFQLTPVLVSVVTFSVYVLVDSNNILDAQKAFTSITLFNILRFPLSMLPMMISSMLQASVSTERLEKYLGGDDLDTSAIRHDCNFDKAMQFSEASFTWEHDSEATVRDVNLDIMAGQLVAVIGPVGSGKSSLISAMLGEMENVHGHITIKGTTAYVPQQSWIQNGTIKDNILFGTEFNEKRYQQVLEACALLPDLEMLPGGDLAEIGEKGINLSGGQKQRISLARATYQNLDIYLLDDPLSAVDAHVGKHIFNKVLGPNGLLKGKTRLLVTHSMHFLPQVDEIVVLGNGTIVEKGSYSALLAKKGEFAKNLKTFLRHTGPEEEATVHDGSEEEDDDYGLISSVEEIPEDAASITMRRENSFRRTLSRSSRSNGRHLKSLRNSLKTRNVNSLKEDEELVKGQKLIKKEFIETGKVKFSIYLEYLQAIGLFSIFFIILAFVMNSVAFIGSNLWLSAWTSDSKIFNSTDYPASQRDMRVGVYGALGLAQGIFVFIAHFWSAFGFVHASNILHKQLLNNILRAPMRFFDTTPTGRIVNRFAGDISTVDDTLPQSLRSWITCFLGIISTLVMICMATPVFTIIVIPLGIIYVSVQMFYVSTSRQLRRLDSVTRSPIYSHFSETVSGLPVIRAFEHQQRFLKHNEVRIDTNQKCVFSWITSNRWLAIRLELVGNLTVFFSALMMVIYRDTLSGDTVGFVLSNALNITQTLNWLVRMTSEIETNIVAVERITEYTKVENEAPWVTDKRPPPDWPSKGKIQFNNYQVRYRPELDLVLRGITCDIGSMEKIGVVGRTGAGKSSLTNCLFRILEAAGGQIIIDGVDIASIGLHDLREKLTIIPQDPILFSGSLRMNLDPFNNYSDEEIWKALELAHLKSFVASLQLGLSHEVTEAGGNLSIGQRQLLCLGRALLRKSKILVLDEATAAVDLETDNLIQTTIQNEFAHCTVITIAHRLHTIMDSDKVMVLDNGKIIECGSPEELLQIPGPFYFMAKEAGIENVNSTKF
Usually Km stands for the substrate concentration at which the rate is half of its maximum. Take B1: the Km in data set [1] is 35.1 µM.

B2: Multidrug resistance associated protein (Homo sapiens), Q96QA9 (protein)
chain: MDALCGSGELGSKFWDSNLSVHTENPDLTPCFQNSLLAWVPCIYLWVALPCYLLYLRHHCRGYIILSHLSKLKMVLGVLLWCVSWADLFYSFHGLVHGRAPAPVFFVTPLVVGVTMLLATLLIQYERLQGVQSSGVLIIFWFLCVVCAIVPFRSKILLAKAEGEISDPFRFTTFYIHFALVLSALILACFREKPPFFSAKNVDPNPYPETSAGFLSRLFFWWFTKMAIYGYRHPLEEKDLWSLKEEDRSQMVVQQLLEAWRKQEKQTARHKASAAPGKNASGEDEVLLGARPRPRKPSFLKALLATFGSSFLISACFKLIQDLLSFINPQLLSILIRFISNPMAPSWWGFLVAGLMFLCSMMQSLILQHYYHYIFVTGVKFRTGIMGVIYRKALVITNSVKRASTVGEIVNLMSVDAQRFMDLAPFLNLLWSAPLQIILAIYFLWQNLGPSVLAGVAFMVLLIPLNGAVAVKMRAFQVKQMKLKDSRIKLMSEILNGIKVLKLYAWEPSFLKQVEGIRQGELQLLRTAAYLHTTTTFTWMCSPFLVTLITLWVYVYVDPNNVLDAEKAFVSVSLFNILRLPLNMLPQLISNLTQASVSLKRIQQFLSQEELDPQSVERKTISPGYAITIHSGTFTWAQDLPPTLHSLDIQVPKGALVAVVGPVGCGKSSLVSALLGEMEKLEGKVHMKGSVAYVPQQAWIQNCTLQENVLFGKALNPKRYQQTLEACALLADLEMLPGGDQTEIGEKGINLSGGQRQRVSLARAVYSDADIFLLDDPLSAVDSHVAKHIFDHVIGPEGVLAGKTRVLVTHGISFLPQTDFIIVLADGQVSEMGPYPALLQRNGSFANFLCNYAPDEDQGHLEDSWTALEGAEDKEALLIEDTLSNHTDLTDNDPVTYVVQKQFMRQLSALSSDGEGQGRPVPRRHLGPSEKVQVTEAKADGALTQEEKAAIGTVELSVFWDYAKAVGLCTTLAICLLYVGQSAAAIGANVWLSAWTNDAMADSRQNNTSLRLGVYAALGILQGFLVMLAAMAMAAGGIQAARVLHQALLHNKIRSPQSFFDTTPSGRILNCFSKDIYVVDEVLAPVILMLLNSFFNAISTLVVIMASTPLFTVVILPLAVLYTLVQRFYAATSRQLKRLESVSRSPIYSHFSETVTGASVIRAYNRSRDFEIISDTKVDANQRSCYPYIISNRWLSIGVEFVGNCVVLFAALFAVIGRSSLNPGLVGLSVSYSLQVTFALNWMIRMMSDLESNIVAVERVKEYSKTETEAPWVVEGSRPPEGWPPRGEVEFRNYSVRYRPGLDLVLRDLSLHVHGGEKVGIVGRTGAGKSSMTLCLFRILEAAKGEIRIDGLNVADIGDPILFSGTLRMNLDPFGSYSEEDIWWALELSHLHTFVSSQPAGLDFQCSEGGENLSVGQRQLVCLARALLRKSRILVLDEATAAIDLETDNLIQATIRTQFDTCTVLTIAHRLNTIMDYTRVLVLDKGVVAEFDSPANLIAARGIFYGMARDAGLA
With B2, the Km in data set [2] was 9.2 µM.
